From publication PMC9317006, “A Fiber-Based SPR Aptasensor for the In Vitro Detection of Inflammation Biomarkers”

T1: C-reactive protein (CRP) (human, UniProt P02741 19-224)
T1 sequence: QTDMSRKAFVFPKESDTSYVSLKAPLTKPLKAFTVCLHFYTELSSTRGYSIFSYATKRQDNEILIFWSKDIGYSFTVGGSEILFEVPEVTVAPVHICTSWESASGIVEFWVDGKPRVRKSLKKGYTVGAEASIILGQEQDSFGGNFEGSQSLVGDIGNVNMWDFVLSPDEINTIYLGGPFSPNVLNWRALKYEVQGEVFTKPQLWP

B1: CRP aptamer (ssDNA)
DNA: GGCAGGAAGACAAACACGATGGGGGGGTATGATTTGATGTGGTTGTGCATGATCGTGGTCTGTGGTGCTGTTTTT
modifications: 3' thiol

Columns and labels:
fibrinogen = assay: fiber-based SPR; details: 100 nM protein; 3' thiol; Detection buffer: 25 mM Tris base, 192 mM glycine, 0.05% Tween 20, 0.1% BSA, 2 mM CaCl2, 100 mM NaCl, pH 8.0; binding temperature not stated (RI calibration at …)
hemoglobin = assay: fiber-based SPR; details: 100 nM protein; 3' thiol; Detection buffer: 25 mM Tris base, 192 mM glycine, 0.05% Tween 20, 0.1% BSA, 2 mM CaCl2, 100 mM NaCl, pH 8.0; binding temperature not stated (RI calibration at …)
[1] = target: cardiac troponin I (cTn-I) (human, UniProt P19429 1-210); assay: fiber-based SPR; LOD 2.5 nM (not a Kd); aptamer loaded at 200 nM; Detection buffer: 25 mM Tris base, 192 mM glycine, 0.05% Tween 20, 0.1% BSA, 2 mM CaCl2, 100 mM NaCl, pH 8.0; binding temperature not stated (RI calibration at); details: protein: recombinant
C-reactive protein (CRP) = target: T1, C-reactive protein (CRP); assay: fiber-based SPR; LOD 1.7 nM (not a Kd); aptamer loaded at 100 nM; Detection buffer: 25 mM Tris base, 192 mM glycine, 0.05% Tween 20, 0.1% BSA, 2 mM CaCl2, 100 mM NaCl, pH 8.0; binding temperature not stated (RI calibration at); details: protein: recombinant; chain copies: 5

Sequence of cardiac troponin I (cTn-I) (P19429 whole entry): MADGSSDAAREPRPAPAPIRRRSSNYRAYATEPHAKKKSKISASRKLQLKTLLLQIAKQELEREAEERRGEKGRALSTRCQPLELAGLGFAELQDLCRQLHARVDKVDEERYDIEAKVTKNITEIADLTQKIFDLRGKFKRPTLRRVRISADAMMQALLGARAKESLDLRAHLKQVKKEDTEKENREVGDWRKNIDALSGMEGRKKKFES

Molecule	binding signal (% of specific response) (fibrinogen)	binding signal (% of specific response) (hemoglobin)	binding result [1]	binding result (C-reactive protein (CRP))
CGAAGGGGATTCGAGGGGTGATTGCGTGCTCCATTTGGTGTTTTT [cTn-I aptamer]	< 20	< 20	–	–
GGCAGGAAGACAAACACGATGGGGGGGTATGATTTGATGTGGTTGTGCATGATCGTGGTCTGTGGTGCTGTTTTT [CRP aptamer]	< 20	< 20	–	–
CGAAGGGGATTCGAGGGGTGATTGCGTGCTCCATTTGGTGTTTTT (ssDNA, 3' thiol) [cTn-I aptamer]	–	–	binds	–
B1	–	–	–	binds
